Measured values taken from patent US20130217572A1, “SPECIFIC DELIVERY OF AGROCHEMICALS” (VRIJE UNIVERSITEIT BRUSSEL, priority 2010, published 2013).

B1: VHH7C2: plant-binding VHH, listed among SEQ ID NO:1-42 (protein, listed as Lama glama)
VHH: QVQLQESGGGLVQPGGSLRLSCAAFGFALANYGIGWFRQAPGKDRERVSCDSVDDGSTHYSNSVQGRFTIIRDNAKNTVFLQMNSLKAEDTAVYYCATTDCDATTWGTWINYRGQGTQVTVSS
modifications: 7C2
B2: VHH5F5: plant-binding VHH, listed among SEQ ID NO:1-42 (protein, listed as Lama glama)
VHH: QVQLQESGGGLVQPGGSLRLSCAASGFPLGLYGIGWFRQAPGKEREAVSCDSVDDGSTNYLDSVKGRFTISRDNAKNMVYLQMNSLKPEDTAVYYCATTDCDAKAWGTWTNYRGQGTQVTVSS
modifications: 5F5
B3: VHH7A2: plant-binding VHH, listed among SEQ ID NO:1-42 (protein, listed as Lama glama)
VHH: QVQLQESGGGSVHPGGSLTLSCLASGFSLSNYGMGWFRQAPGKEREAVSCTSVPNGHIYYAESVKGRFTIVRDNAGNSVYLQMNSLKPEDAANYFCATTDCEAAHWGTWVNYYGQGTQVTVSS
modifications: 7A2
B4: VHH5E5: plant-binding VHH, listed among SEQ ID NO:1-42 (protein, listed as Lama glama)
VHH: QVQLQESGGGLVQPGGSLTLSCTASGFAMRRFGIGWFRQVVGKEREGVSCSNVHDGSTYYANYVKGRFTIVRDDTKNMLYLHMNSLRAEDTGVYSCATTDCEATAWGTYRGYFGQGTQVTVSS
modifications: 5E5

system: gum arabic; test: VHH binding to gum arabic in ELISA; set-up: species or system acacia tree; details: [VHH] 0.0117188 μg/ml (0.78125 nM); gum arabic 100 μg/ml
Description: Titration of VHH antibody fragments was performed on ELISA plates (Maxisorp, Nunc) coated with 100 μl per well 100 μg/ml gum arabic in 50 mM carbonate pH9.6. Plates were coated at 4° C. overnight and coating was continued at room temperature for 1 hour on the next day. Plates were washed three times with PBS/0.05%-TWEEN®-20 and blocked with 5% skimmed milk in PBS for 1 hour. Four-fold serial dilutions of purified VHH antibody fragments were prepared in 1% MPBS/0.05%-TWEEN®-20 in polypropylene 96-well plates. Antibody concentrations ranged from 3 μg/ml to 12 ng/ml. Antibody dilutions were transferred to the gum arabic-coated plates and VHH antibody fragments were allowed to bind for 1 hour at room temperature. Bound VHH were detected with sequential incubations with monoclonal mouse anti-histidine antibodies (Abd Serotec) and rabbit anti-mouse IgG whole molecule antibodies conjugated with alkaline phosphatase (RaM/AP) (Sigma) in 1% MPBS/0.05%-TWEEN®-20. Unbound antibodies were removed by washing three times with PBS/0.05%-TWEEN®-20 after each antibody incubation. The plates were washed an additional two times with PBS and 100 μl pNPP disodium hexahydrate substrate (Sigma) was added to each well. The absorbance at 405 nm was measured and plotted as function of antibody concentration (see Table 1).

Row | absorbance at 405 nm | Molecule
1 | 0.088 | B1
2 | 0.093 | B2
3 | 0.088 | B3
4 | 0.074 | B4

same assay, conditions: [VHH] 0.04688 μg/ml (3.125 nM); gum arabic 100 μg/ml

Row | absorbance at 405 nm | Molecule
5 | 0.092 | B1
6 | 0.100 | B2
7 | 0.101 | B3
8 | 0.088 | B4

same assay, conditions: [VHH] 0.1875 μg/ml (12.5 nM); gum arabic 100 μg/ml

Row | absorbance at 405 nm | Molecule
9 | 0.090 | B1
10 | 0.191 | B2
11 | 0.216 | B3
12 | 0.185 | B4

same assay, conditions: [VHH] 0.75 μg/ml (50 nM); gum arabic 100 μg/ml

Row | absorbance at 405 nm | Molecule
13 | 0.194 | B1
14 | 0.476 | B2
15 | 0.677 | B3
16 | 0.569 | B4

same assay, conditions: [VHH] 3 μg/ml (200 nM); gum arabic 100 μg/ml

Row | absorbance at 405 nm | Molecule
17 | 0.461 | B1
18 | 0.959 | B2
19 | 1.391 | B3
20 | 1.194 | B4

same assay, conditions: [VHH] 3 μg/ml (200 nM); no gum arabic coat (−)

Row | absorbance at 405 nm | Molecule
21 | 0.077 | B1
22 | 0.090 | B2
23 | 0.075 | B3
24 | 0.073 | B4
